# Test results: US20260184748A1 (University of Pennsylvania, published 2026)
# Where no end group is shown, it is not given here.
# T1: TBXA2R (UniProt P21731 1-343, limits assumed)
# T1 sequence (looked up): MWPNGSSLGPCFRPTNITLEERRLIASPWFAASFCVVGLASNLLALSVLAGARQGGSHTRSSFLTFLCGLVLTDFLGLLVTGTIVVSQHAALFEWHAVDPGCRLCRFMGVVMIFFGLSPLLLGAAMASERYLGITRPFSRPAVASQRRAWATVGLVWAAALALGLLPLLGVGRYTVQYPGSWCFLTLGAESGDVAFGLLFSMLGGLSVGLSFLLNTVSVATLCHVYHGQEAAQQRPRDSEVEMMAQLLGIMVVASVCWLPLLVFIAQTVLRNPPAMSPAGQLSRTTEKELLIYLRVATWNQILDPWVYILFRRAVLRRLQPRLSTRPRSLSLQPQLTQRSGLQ
# T2: CX3CR1 (UniProt P49238 1-355)
# T2 sequence (looked up): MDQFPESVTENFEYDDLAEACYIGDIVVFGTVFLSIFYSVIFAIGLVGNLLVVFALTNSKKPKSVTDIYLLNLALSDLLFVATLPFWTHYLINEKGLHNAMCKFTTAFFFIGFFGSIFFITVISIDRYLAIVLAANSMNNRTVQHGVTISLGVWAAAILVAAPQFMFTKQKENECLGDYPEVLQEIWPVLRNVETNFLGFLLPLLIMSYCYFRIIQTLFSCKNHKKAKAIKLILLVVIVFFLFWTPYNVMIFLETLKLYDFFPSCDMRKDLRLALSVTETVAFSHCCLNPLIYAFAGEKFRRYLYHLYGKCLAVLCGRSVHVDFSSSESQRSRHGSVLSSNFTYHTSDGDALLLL
# T3: NPY2R (UniProt P49146 1-381)
# T3 sequence (looked up): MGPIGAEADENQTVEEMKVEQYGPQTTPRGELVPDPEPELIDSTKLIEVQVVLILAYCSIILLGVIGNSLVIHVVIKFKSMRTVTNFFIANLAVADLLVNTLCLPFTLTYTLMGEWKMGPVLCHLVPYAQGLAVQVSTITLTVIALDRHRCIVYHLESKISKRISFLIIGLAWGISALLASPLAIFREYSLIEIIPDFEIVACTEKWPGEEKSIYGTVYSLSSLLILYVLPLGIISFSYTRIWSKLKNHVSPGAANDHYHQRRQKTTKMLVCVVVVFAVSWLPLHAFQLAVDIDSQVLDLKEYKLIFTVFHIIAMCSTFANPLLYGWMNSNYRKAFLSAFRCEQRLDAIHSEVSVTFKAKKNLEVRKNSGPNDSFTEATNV
# T4: CCR2 (UniProt P41597-2 1-360, limits assumed)
# T4 sequence (looked up): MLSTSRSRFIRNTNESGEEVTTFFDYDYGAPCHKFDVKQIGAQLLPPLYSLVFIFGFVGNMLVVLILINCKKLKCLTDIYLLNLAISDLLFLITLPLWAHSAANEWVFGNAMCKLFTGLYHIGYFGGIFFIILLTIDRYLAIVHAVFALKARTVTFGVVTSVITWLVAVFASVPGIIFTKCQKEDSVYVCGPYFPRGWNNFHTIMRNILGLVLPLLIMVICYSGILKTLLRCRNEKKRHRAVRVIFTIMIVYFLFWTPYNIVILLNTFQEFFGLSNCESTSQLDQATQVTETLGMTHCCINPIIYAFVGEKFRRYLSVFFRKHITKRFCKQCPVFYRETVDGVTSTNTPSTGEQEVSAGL
# T5: VIPR1 (UniProt P32241 31-457)
# T5 sequence (looked up): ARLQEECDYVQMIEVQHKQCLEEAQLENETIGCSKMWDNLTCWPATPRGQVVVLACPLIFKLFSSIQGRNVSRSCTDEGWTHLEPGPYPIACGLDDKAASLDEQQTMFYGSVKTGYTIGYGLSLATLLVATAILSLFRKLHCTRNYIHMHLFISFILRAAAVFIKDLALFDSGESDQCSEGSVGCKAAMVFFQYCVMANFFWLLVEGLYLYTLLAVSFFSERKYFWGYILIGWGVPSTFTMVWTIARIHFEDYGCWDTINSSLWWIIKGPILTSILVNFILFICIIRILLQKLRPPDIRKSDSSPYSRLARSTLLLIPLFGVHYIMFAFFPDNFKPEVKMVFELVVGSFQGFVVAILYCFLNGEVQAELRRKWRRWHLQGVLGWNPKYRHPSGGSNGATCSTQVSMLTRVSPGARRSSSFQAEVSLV
# T6: GPR1 (UniProt P46091 1-355)
# T6 sequence (looked up): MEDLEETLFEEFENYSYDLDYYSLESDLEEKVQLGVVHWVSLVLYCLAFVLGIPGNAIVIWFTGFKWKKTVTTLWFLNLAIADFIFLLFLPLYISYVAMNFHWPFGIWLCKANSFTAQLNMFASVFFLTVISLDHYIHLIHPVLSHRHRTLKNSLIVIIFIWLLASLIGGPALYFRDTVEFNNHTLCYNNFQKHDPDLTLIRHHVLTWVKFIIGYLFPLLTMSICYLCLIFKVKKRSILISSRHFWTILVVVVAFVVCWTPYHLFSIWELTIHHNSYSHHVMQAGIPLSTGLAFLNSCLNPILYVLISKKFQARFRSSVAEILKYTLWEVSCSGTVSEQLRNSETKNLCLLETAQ
# Assays:
# Experiment in all cases: cell-based or functional assay
# [1] = target: T1, TBXA2R
# [2] = target: OPRL1 (UniProt P41146 1-370)
# [3] = target: P2RY2 (UniProt P41231 1-377)
# [4] = target: GPR35 (UniProt Q9HC97 1-309, limits assumed)
# [5] = target: T2, CX3CR1
# [6] = target: T3, NPY2R
# [7] = target: LHCGR (UniProt P22888 27-699)
# [8] = target: T4, CCR2
# [9] = target: MLNR (UniProt O43193 1-412)
# [10] = target: PTHR2 (UniProt P49190 25-550)
# [11] = target: PTGER2 (UniProt P43116 1-358)
# [12] = target: HTR1B (UniProt P28222 1-390)
# [13] = target: T5, VIPR1
# [14] = target: T6, GPR1
# Sequence of PTHR2 (P49190 25-550 limits assumed): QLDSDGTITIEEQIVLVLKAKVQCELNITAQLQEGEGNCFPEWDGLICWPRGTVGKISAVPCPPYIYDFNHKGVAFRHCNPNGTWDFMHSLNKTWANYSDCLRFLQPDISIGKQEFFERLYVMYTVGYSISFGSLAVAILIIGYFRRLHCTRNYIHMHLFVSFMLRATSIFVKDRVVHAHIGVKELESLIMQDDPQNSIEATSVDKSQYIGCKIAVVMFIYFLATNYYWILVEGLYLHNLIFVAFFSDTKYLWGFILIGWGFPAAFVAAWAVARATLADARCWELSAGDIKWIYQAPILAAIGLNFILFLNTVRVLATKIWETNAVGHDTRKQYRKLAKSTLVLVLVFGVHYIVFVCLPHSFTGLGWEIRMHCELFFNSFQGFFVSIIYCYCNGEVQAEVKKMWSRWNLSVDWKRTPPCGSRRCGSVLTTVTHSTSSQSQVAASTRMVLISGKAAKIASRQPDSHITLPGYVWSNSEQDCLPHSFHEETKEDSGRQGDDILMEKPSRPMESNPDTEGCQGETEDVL
# Sequence of GPR35 (Q9HC97 whole entry): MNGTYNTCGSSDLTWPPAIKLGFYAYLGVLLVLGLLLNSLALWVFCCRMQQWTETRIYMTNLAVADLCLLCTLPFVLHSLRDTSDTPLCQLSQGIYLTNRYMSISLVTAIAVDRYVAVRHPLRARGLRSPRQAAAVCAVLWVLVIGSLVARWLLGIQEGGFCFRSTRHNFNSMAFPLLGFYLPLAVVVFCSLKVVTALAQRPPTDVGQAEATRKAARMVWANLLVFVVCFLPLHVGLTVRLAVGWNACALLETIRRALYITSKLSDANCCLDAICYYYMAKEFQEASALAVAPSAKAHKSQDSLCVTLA
# Sequence of LHCGR (P22888 27-699 limits assumed): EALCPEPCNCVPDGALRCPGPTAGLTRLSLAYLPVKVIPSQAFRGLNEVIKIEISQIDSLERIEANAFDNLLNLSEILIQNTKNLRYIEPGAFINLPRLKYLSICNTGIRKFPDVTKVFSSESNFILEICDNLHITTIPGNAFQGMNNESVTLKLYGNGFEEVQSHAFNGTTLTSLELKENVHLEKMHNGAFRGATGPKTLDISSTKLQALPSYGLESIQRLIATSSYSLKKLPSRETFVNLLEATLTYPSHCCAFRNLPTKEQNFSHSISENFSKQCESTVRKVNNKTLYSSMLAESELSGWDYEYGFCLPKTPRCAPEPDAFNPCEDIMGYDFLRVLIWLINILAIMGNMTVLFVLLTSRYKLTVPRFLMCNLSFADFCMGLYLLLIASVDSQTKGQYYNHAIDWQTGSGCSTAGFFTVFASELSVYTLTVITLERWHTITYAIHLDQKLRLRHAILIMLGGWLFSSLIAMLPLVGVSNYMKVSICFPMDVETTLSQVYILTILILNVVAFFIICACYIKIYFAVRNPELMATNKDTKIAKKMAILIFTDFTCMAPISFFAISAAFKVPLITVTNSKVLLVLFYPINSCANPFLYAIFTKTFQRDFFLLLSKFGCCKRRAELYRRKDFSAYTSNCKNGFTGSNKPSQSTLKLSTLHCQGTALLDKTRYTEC
# Sequence of MLNR (O43193 whole entry): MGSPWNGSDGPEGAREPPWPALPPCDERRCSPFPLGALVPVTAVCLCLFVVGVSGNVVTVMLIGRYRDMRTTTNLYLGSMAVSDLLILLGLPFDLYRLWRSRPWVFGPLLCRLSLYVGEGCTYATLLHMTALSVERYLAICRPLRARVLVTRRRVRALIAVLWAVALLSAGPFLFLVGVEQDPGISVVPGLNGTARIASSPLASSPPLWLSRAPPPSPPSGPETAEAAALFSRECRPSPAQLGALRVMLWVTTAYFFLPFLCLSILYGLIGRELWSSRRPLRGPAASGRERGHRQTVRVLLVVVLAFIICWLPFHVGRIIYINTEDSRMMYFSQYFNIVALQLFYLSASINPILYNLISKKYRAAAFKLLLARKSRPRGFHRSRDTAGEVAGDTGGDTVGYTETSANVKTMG
# Sequence of PTGER2 (P43116 whole entry): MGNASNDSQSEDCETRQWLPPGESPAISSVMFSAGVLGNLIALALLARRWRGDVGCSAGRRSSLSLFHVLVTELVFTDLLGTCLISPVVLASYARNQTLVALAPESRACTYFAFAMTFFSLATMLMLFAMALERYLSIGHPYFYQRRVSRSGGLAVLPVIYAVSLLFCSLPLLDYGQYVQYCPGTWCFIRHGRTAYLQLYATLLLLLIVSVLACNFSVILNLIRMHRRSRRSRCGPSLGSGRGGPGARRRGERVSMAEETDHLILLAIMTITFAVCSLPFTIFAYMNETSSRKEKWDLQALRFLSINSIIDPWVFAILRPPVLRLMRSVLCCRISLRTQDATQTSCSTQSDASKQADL
# Sequence of OPRL1 (P41146 whole entry): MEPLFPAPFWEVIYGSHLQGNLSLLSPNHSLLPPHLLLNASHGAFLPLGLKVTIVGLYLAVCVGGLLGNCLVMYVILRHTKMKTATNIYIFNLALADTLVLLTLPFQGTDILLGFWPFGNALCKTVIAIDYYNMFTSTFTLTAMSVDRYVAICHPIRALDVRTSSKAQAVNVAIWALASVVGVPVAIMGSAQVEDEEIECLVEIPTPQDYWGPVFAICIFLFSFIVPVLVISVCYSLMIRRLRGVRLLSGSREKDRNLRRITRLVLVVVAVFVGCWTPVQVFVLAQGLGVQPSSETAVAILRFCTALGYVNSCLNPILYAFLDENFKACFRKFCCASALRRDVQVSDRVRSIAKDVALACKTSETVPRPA
# Sequence of P2RY2 (P41231 whole entry): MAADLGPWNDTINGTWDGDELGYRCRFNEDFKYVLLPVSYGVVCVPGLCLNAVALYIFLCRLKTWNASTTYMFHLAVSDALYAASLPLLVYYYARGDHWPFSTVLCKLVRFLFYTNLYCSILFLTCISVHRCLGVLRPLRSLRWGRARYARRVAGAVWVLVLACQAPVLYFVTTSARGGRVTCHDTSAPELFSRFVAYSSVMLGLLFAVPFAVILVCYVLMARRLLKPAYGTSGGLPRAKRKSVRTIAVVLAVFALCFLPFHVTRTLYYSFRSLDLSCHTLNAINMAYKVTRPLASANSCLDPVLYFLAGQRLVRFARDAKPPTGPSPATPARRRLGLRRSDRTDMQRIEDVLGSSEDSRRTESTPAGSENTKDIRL
# Sequence of HTR1B (P28222 whole entry): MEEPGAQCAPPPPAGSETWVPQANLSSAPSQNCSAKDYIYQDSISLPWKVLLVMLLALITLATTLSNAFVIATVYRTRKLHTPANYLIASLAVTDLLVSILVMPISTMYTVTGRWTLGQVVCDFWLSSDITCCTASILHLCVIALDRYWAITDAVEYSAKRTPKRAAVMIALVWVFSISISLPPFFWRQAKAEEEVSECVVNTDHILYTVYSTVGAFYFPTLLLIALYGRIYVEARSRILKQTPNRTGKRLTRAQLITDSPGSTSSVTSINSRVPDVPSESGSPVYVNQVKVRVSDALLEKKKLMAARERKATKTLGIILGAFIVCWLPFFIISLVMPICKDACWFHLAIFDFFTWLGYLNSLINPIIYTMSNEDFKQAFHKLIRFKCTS
binder,measurement,setting,value
"QATVGDVNTDRPGLLDLK (also: synthesised on Rink amide resin, C-terminal amide not given here outright) [octadecaneuropeptide (ODN)]","% Activity, arrestin, antagonist mode, 2.5 uM",[1],16.2%
same,"% Activity, arrestin, antagonist mode, 2.5 uM",[2],-5.6%
same,"% Activity, arrestin, antagonist mode, 2.5 uM",[3],-5.2%
same,"% Activity, arrestin, antagonist mode, 2.5 uM",[4],-12.2%
same,"% Activity, arrestin, antagonist mode, 2.5 uM",[5],-0.8%
same,"% Activity, arrestin, antagonist mode, 2.5 uM",[6],-10.3%
same,"% Activity, arrestin, antagonist mode, 2.5 uM",[7],7.2%
same,"% Activity, arrestin, antagonist mode, 2.5 uM",[8],-15.4%
same,"% Activity, arrestin, antagonist mode, 2.5 uM",[9],-5.5%
same,"% Activity, arrestin, antagonist mode, 2.5 uM",[10],4.5%
same,"% Activity, arrestin, antagonist mode, 2.5 uM",[11],2.1%
same,"% Activity, arrestin, antagonist mode, 2.5 uM",[12],-11.9%
same,"% Activity, arrestin, antagonist mode, 2.5 uM",[13],-11.6%
same,"% Activity, arrestin, antagonist mode, 2.5 uM",[14],-1.3%
